Measurements taken from patent US20250066499A1 (SUNSHINE GUOJIAN PHARMACEUTICAL SHANGHAI, published 2025).
Residue numbers refer to the chain shown, from its start.

What was measured:
Assay in all cases: ELISA; decline multiple of Top against CD73-ND
CD73-ND-L133A = target: T1, CD73-ND-L133A (human, UniProt P21589 27-317)
T1 construct: Alanine mutant of CD73-ND
T1 sequence: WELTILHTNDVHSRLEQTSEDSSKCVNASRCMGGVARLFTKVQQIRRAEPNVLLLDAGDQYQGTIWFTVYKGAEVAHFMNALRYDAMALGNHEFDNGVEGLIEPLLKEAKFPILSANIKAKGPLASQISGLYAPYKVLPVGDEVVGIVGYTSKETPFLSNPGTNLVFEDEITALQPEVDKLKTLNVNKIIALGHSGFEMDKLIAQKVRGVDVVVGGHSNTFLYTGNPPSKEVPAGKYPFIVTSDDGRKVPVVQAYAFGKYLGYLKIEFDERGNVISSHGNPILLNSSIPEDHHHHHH
Description: (§1) The ELISA plates were coated with SA protein diluted to 1.5 μg/mL in coating buffer (50 mM carbonate coating buffer, pH 9.6) and incubated overnight at 4° C. The supernatant was discarded, and the plates were washed three times with PBST. Then, 5% skimmed milk powder prepared with PBS was added for blocking and the plates were incubated for 2 h at 37° C. After washing the plates once with PBST, CD73-biotin protein (prepared by biotinylating CD73-His protein according to the EZ-Link NHS-Biotin Reagent instructions) was diluted to 0.5 μg/mL and added at 100 μL/well for incubation at room temperature for 1 h. The plates were washed three times with PBST, and the prepared murine-derived monoclonal antibodies against human CD73 were serially diluted with 1% BSA buffer prepared with PBST and added to the ELISA plates at 100 μl/well. The plates were incubated at 37° C. for 1 h. After washing the plates three times with PBST, HRP-labeled goat anti-mouse IgG secondary antibody was added and the plates were incubated for 30 min at 37° C. After washing the plates three times with PBST, the residual droplets were patted dry on absorbent paper as much as possible. Then, 100 μl of TMB color developing solution was added to each well, and the plates were incubated in the dark at room temperature for 5 min for color development. Subsequently, 50 μl of 2M H₂SO₄ stop solution was added to each well to terminate the substrate reaction. The OD values were read at 450 nm using a multimode microplate reader to analyze the binding ability of the tested antibodies to the target antigen human CD73-His.
(§2) Referring to the experimental method in Example 3, the affinity of 48A11-HuV33 for various mutant proteins of CD73-ND was determined. The SA protein was diluted to 1 μg/mL for coating the ELISA plates, and the biotinylated CD73 protein (CD73-biotin) was used at a concentration of 0.1 μg/mL.

CD73-ND-P134A = target: T2, CD73-ND-P134A (human, UniProt P21589 27-317)
T2 construct: Alanine mutant of CD73-ND
T2 sequence: T1 sequence with A133L, P134A
Description: as §1, §2

CD73-ND-his = target: T3, CD73-ND-his (human, UniProt P21589 27-317)
T3 construct: Biotinylated and captured on streptavidin in the ELISA
T3 sequence: T1 sequence with A133L
Description: as §1, §2

CD73-ND-Y135A = target: T4, CD73-ND-Y135A (human, UniProt P21589 27-317)
T4 construct: Alanine mutant of CD73-ND
T4 sequence: T1 sequence with A133L, Y135A
Description: as §1, §2

CD73-ND-V137A = target: T5, CD73-ND-V137A (human, UniProt P21589 27-317)
T5 construct: Alanine mutant of CD73-ND
T5 sequence: T1 sequence with A133L, V137A
Description: as §1, §2

CD73-ND-L138A = target: T6, CD73-ND-L138A (human, UniProt P21589 27-317)
T6 construct: Alanine mutant of CD73-ND
T6 sequence: T1 sequence with A133L, L138A
Description: as §1, §2

B1: 48A11-HuV33 (antibody, human IgG4, V domains shown)
VH: QVQLVQSGAEVKKPGASVKVSCKASGYTFTSYWMHWVRQAPGQGLEWIGEINPSIGRTNYNEKFKSRVTLTRDTSTSTAYMELSSLRSEDTAVYYCARRVYGTMDYWGQGTLVTVSS
VL: DIQMTQSPSSLSASVGDRVTITCKASQDINSYLSWFQQKPGKSPKLLIYRANIWVDGVPSRFSGSGSGQDYTFTISSLQPEDIATYYCLQYDELYTFGQGTKVEIK
notes: Humanized
For B1, the “Ratio(Top)” value (CD73-ND-L133A) was 2.3 fold, the “Ratio(Top)” value (CD73-ND-P134A) was 1.1 fold and the “Ratio(Top)” value (CD73-ND-his) was 1 fold. For the same binder, the “Ratio(Top)” value (CD73-ND-Y135A) was 1.1 fold, the “Ratio(Top)” value (CD73-ND-V137A) was 1.3 fold and the “Ratio(Top)” value (CD73-ND-L138A) was 1.1 fold.
